Assay results as given in patent US20120219551A1 (MacroGenics, published 2012).

Target: T1, soluble dimeric FcγRIIB-Fc fusion protein (extracellular domain of FcγRIIB fused to hinge-CH2-CH3 of human … (human, UniProt P31994 43-217))
T1 construct: extracellular domain; also called FcRIIB-Fc; 2bfcagl; not shown: human IgG2 hinge-CH2-CH3
T1 sequence (looked up): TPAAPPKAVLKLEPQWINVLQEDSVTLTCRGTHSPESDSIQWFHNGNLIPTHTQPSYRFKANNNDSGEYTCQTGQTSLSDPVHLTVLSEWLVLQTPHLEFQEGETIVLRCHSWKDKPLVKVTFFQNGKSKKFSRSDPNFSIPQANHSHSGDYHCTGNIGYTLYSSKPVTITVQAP
Test: SPR (BIAcore), Fc mutant in ch4-4-20, off rate relative to wild type

B1: ch4-4-20 MgFc66 (A330V, V427M) (antibody)
chain 1: not shown
chain 2: DVVMTQTPLSLPVSLGDQASISCRSSQSLVHSNGNTYLRWYLQKPGQSPKVLIYKVSNRFSGVPDRFSGSGSGTDFTLKISRVEAEDLGVYFCSQSTHVPWTFGGGTKLEIKRTVAAPSVFIFPPSDEQLKSGTASVVCLLNNFYPREAKVQWKVDNALQSGNSQESVTEQDSKDSTYSLSSTLTLSKADYEKHKVYACEVTHQGLSSPVTKSFNRGEC
Koff WT/Mut: 0.62
